What was measured:
[1] = test system: H3Kc36me3 nucleosomes; assay: MLA nucleosome pulldown by GST-NPAC.d1; format: binding; settings: H3Kc36me3, H3Kc79me3, H3Kc9me3, H3Kc27me3, unmodified
Experimental: MLA nucleosomes were reconstituted using 147 bp double-strand alpha satellite DNA and recombinant histones expressed and purified from E. coli. Tri-methylation was chemically introduced to H3K9C, H3K27C, H3K36C and H3K79C histones respectively as described (Simon et al., 2007). 2 μg MLA nucleosome was used for GST-pulldown as described above.

[2] = test system: nucleosomes purified from HeLa; assay: Nucleosome pulldown by GST-NPAC proteins; format: binding
Experimental: Nucleosomes were purified from HeLa as previously described (Umlauf et al., 2004). To examine nucleosome binding selectivity of NPAC, 5 μg GST fusion protein bound to glutathione agarose were incubated with 20 μg nucleosomes overnight at 4° C. in nucleosome binding buffer (50 mM NaPO4 pH 7.4, 200 mM NaCl, 0.5% NP-40, 5% glycerol, 10 μM ZnSO4, 1 mM MgCl2, 1 mM DTT, 0.1 mM PMSF). After washing 4 times with the same buffer at 4° C., the beads were boiled in 1×SDS sample loading buffer and elute was resolved by 15% SDS-PAGE for immunoblot analysis or coomassie staining.
For free-DNA competition assays, human genomic DNA was purified from HeLa cells and fragmented to an average size around 300 bp by sonication. Equal amounts of GST-NPAC.d5 bound to glutathione beads were pre-incubated with 0, 5, 10, 25 μg genomic DNA fragments in nucleosome binding buffer for 30 minutes at room temperature, and equal amounts of nucleosomes were added and incubated overnight at 4° C. After extensive washing, GST-NPAC.d5 and bound nucleosomes were eluted by boiling in 1×SDS sample loading buffer, resolved by SDS-PAGE and stained with coomassie blue.

[3] = test system: double strand DNA; assay: DNA binding assay (GST-pulldown)
Experimental: 5-10 μg GST and GST-tagged NPAC truncation proteins were incubated with 1 μg linearized plasmid DNA overnight at 4° C. in 50 mM Tris pH 7.4, 200 mM NaCl, 0.2% NP-40, 1 mM MgCl2, 1 mM EDTA, 1 mM DTT, 0.02 mM ZnSO4. After extensive washing with the same buffer, bound DNA was eluted by incubating with 100 μl 10 mM Tris pH 8.0, 1% SDS for 15 minutes at 65° C. Pulldown DNA was purified using Qiagen PCR purification kit, resolved by agarose gel electrophoresis and stained with Ethidium Bromide.

Nucleosome binding (GST-pulldown) [2]: strong binding to nucleosomes | DNA binding (GST-pulldown) [3]: can bind to double strand DNA
B1: NPAC.d1: Example 2 GST-NPAC truncation, residues 1-150 (protein, UniProt Q49A26 1-150, looked up, fragment)
chain: MAAVSLRLGDLVWGKLGRYPPWPGKIVNPPKDLKKPRGKKCFFVKFFGTEDHAWIKVEQLKPYHAHKEEMIKINKGKRFQQAVDAVEEFLRRAKGKDQTSSHNSSDDKNRRNSSEERSRPNSGDEKRKLSLSEGKVKKNMGEGKKRVSSG
modifications: GST tag
Binding to modification-specific MLA nucleosomes [1]: highest binding affinity for H3Kc36me3 nucleosomes over H3Kc79me3

Source: patent publication US9745384B2, “Peptides useful for modulating histone demethylase function” (The Brigham and Women's Hospital, Inc., priority 2012, dated 2017)
